According to US20190010233A1:
Several values for one entry are separate records, joined by “and”; a condition that tells them apart may be missing. Identical values can stand only once.

Legend:
[1] = biological target: cyno PD-L1^ECD-hFc protein (cyno) (UniProt G7PSE7); assay: ELISA, 3 nM mAb
[2] = biological target: human PD-L1^ECD-hFc protein (human) (UniProt Q9NZQ7); assay: ELISA, 3 nM mAb
[3] = biological target: human PD-L1^ECD-hFc protein (human) (UniProt Q9NZQ7); assay: ELISA, 10 nM mAb
[4] = biological target: cyno PD-L1^ECD-hFc protein (cyno) (UniProt G7PSE7); assay: ELISA, 30 nM mAb
[5] = biological target: human PD-L1^ECD-hFc protein (human) (UniProt Q9NZQ7); assay: ELISA, 30 nM mAb
[6] = biological target: cyno PD-L1^ECD-hFc protein (cyno) (UniProt G7PSE7); assay: ELISA, 0.1 nM mAb
[7] = biological target: human PD-L1^ECD-hFc protein (human) (UniProt Q9NZQ7); assay: ELISA, 0.1 nM mAb
[8] = biological target: cyno PD-L1^ECD-hFc protein (cyno) (UniProt G7PSE7); assay: ELISA, 100 nM mAb
[9] = biological target: human PD-L1^ECD-hFc protein (human) (UniProt Q9NZQ7); assay: ELISA, 100 nM mAb
[10] = biological target: cyno PD-L1^ECD-hFc protein (cyno) (UniProt G7PSE7); assay: ELISA, 0.01 nM mAb
[11] = biological target: human PD-L1^ECD-hFc protein (human) (UniProt Q9NZQ7); assay: ELISA, 0.01 nM mAb
[12] = biological target: cyno PD-L1^ECD-hFc protein (cyno) (UniProt G7PSE7); assay: ELISA, 0.03 nM mAb
[13] = biological target: human PD-L1^ECD-hFc protein (human) (UniProt Q9NZQ7); assay: ELISA, 0.03 nM mAb
[14] = biological target: cyno PD-L1^ECD-hFc protein (cyno) (UniProt G7PSE7); assay: ELISA, 0.123 nM mAb
[15] = biological target: human PD-L1^ECD-hFc protein (human) (UniProt Q9NZQ7); assay: ELISA, 0.123 nM mAb
[16] = biological target: cyno PD-L1^ECD-hFc protein (cyno) (UniProt G7PSE7); assay: ELISA, 1.111 nM mAb
[17] = biological target: human PD-L1^ECD-hFc protein (human) (UniProt Q9NZQ7); assay: ELISA, 1.111 nM mAb
[18] = biological target: cyno PD-L1^ECD-hFc protein (cyno) (UniProt G7PSE7); assay: ELISA, 3.333 nM mAb
[19] = biological target: human PD-L1^ECD-hFc protein (human) (UniProt Q9NZQ7); assay: ELISA, 3.333 nM mAb
[20] = biological target: cyno PD-L1^ECD-hFc protein (cyno) (UniProt G7PSE7); assay: ELISA, 0.003 nM mAb
[21] = biological target: human PD-L1^ECD-hFc protein (human) (UniProt Q9NZQ7); assay: ELISA, 0.003 nM mAb
[22] = biological target: cyno PD-L1^ECD-hFc protein (cyno) (UniProt G7PSE7); assay: ELISA, 0.0003 nM mAb
[23] = biological target: human PD-L1^ECD-hFc protein (human) (UniProt Q9NZQ7); assay: ELISA, 0.0003 nM mAb
[24] = biological target: cyno PD-L1^ECD-hFc protein (cyno) (UniProt G7PSE7); assay: ELISA, 0.00003 nM mAb
[25] = biological target: human PD-L1^ECD-hFc protein (human) (UniProt Q9NZQ7); assay: ELISA, 0.00003 nM mAb
[26] = biological target: full length human PD-L1 on cells (human) (UniProt Q9NZQ7); assay: FACS CHOK1-hPD-L1, 3 nM mAb
[27] = biological target: full length human PD-L1 on cells (human) (UniProt Q9NZQ7); assay: FACS CHO-K1-hPD-L1, 1 nM mAb
[28] = biological target: full length cyno PD-L1 on cells (cyno) (UniProt G7PSE7); assay: FACS CHO-K1-cPD-L1, 1 nM mAb
[29] = biological target: full length cyno PD-L1 on cells (cyno) (UniProt G7PSE7); assay: FACS CHO-K1-cPD-L1, 3 nM mAb
[30] = biological target: full length human PD-L1 on cells (human) (UniProt Q9NZQ7); assay: FACS CHOK1-hPD-L1, 0.3 nM mAb
[31] = biological target: full length cyno PD-L1 on cells (cyno) (UniProt G7PSE7); assay: FACS CHO-K1-cPD-L1, 0.1 nM mAb
[32] = biological target: full length cyno PD-L1 on cells (cyno) (UniProt G7PSE7); assay: FACS CHO-K1-cPD-L1, 300 nM mAb
[33] = biological target: full length cyno PD-L1 on cells (cyno) (UniProt G7PSE7); assay: FACS CHO-K1-cPD-L1, 0.14 nM mAb
[34] = biological target: full length cyno PD-L1 on cells (cyno) (UniProt G7PSE7); assay: FACS CHO-K1-cPD-L1, 0.41 nM mAb
[35] = biological target: full length human PD-L1 on cells (human) (UniProt Q9NZQ7); assay: FACS CHOK1-hPD-L1, 0.003 nM mAb
[36] = biological target: full length cyno PD-L1 on cells (cyno) (UniProt G7PSE7); assay: FACS CHO-K1-cPD-L1, 33.33 nM mAb
[37] = biological target: full length human PD-L1 on cells (human) (UniProt Q9NZQ7); assay: FACS CHOK1-hPD-L1, 0.0003 nM mAb
[38] = biological target: full length cyno PD-L1 on cells (cyno) (UniProt G7PSE7); assay: FACS CHO-K1-cPD-L1, 0.003 nM mAb
[39] = biological target: full length cyno PD-L1 on cells (cyno) (UniProt G7PSE7); assay: FACS CHO-K1-cPD-L1, 100.00 nM mAb
[40] = biological target: full length cyno PD-L1 on cells (cyno) (UniProt G7PSE7); assay: FACS CHO-K1-cPD-L1, 0.0003 nM mAb

full length human PD-L1 on cells (human), sequence (Q9NZQ7 19-290 limits assumed): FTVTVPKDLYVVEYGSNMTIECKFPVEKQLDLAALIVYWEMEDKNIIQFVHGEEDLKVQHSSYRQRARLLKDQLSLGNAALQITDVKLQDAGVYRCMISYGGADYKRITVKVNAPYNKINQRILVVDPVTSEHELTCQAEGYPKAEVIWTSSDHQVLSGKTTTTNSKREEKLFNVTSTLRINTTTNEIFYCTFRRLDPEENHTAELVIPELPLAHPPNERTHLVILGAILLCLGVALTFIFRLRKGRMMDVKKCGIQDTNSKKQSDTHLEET
full length cyno PD-L1 on cells (cyno), sequence (G7PSE7 entry or part of it limits assumed): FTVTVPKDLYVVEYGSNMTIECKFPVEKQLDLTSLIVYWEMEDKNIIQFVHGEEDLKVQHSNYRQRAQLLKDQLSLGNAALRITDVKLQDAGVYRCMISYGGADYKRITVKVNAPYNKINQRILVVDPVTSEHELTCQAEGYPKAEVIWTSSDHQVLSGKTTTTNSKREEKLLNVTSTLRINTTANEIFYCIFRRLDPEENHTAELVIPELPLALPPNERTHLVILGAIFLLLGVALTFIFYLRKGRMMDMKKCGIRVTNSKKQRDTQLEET
human PD-L1^ECD-hFc protein (human), sequence (Q9NZQ7 19-239): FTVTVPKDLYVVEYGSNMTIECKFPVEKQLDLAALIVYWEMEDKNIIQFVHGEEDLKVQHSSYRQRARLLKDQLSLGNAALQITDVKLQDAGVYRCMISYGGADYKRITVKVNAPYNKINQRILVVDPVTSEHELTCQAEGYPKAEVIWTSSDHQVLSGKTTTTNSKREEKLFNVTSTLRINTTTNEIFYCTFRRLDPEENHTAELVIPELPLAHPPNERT
cyno PD-L1^ECD-hFc protein (cyno), sequence (G7PSE7 entry or part of it limits assumed): as the sequence (Q9NZQ7 19-239) above, with A33T, A34S, S62N, R68Q, Q82R, F173L, T185A, T192I, H215L counted along it

OD450 nm [1]: 0.282
OD450 nm [2]: 0.277
OD450 nm [3]: 0.15
OD450 nm [4]: 0.12
OD450 nm [5]: 0.315
OD450 nm [6]: 0.0967
OD450 nm [7]: 0.149
OD450 nm [8]: 0.398
OD450 nm [9]: 0.767
OD450 nm [10]: 0.0987
OD450 nm [11]: 0.154
OD450 nm [12]: 0.276
OD450 nm [13]: 0.273
OD450 nm [14]: 0.11
OD450 nm [15]: 0.11
OD450 nm [16]: 0.16
OD450 nm [17]: 0.16
OD450 nm [18]: 0.11
OD450 nm [19]: 0.11
OD450 nm [20]: 0.302
OD450 nm [21]: 0.298
OD450 nm [22]: 0.273
OD450 nm [23]: 0.338
OD450 nm [24]: 0.31
OD450 nm [25]: 0.296
Mean fluorescence intensity [26]: 3.56
Mean fluorescence intensity [27]: 2.51
Mean fluorescence intensity [28]: 1.83
Mean fluorescence intensity [29]: 3.91
Mean fluorescence intensity [30]: 3.16
Mean fluorescence intensity [31]: 2.2
Mean fluorescence intensity [32]: 15.6
Mean fluorescence intensity [33]: 2.74
Mean fluorescence intensity [34]: 2.69
Mean fluorescence intensity [35]: 3.03
Mean fluorescence intensity [36]: 2.94
Mean fluorescence intensity [37]: 2.79
Mean fluorescence intensity [38]: 3.62
Mean fluorescence intensity [39]: 3.33 and 8.11
Mean fluorescence intensity [40]: 3.76
Substance: IgG control (human IgG) (antibody)
